These results are taken from patent US20040146896A1, “Methods and compositions for diagnosing and treating companion animal cancer” (priority 2002, published 2004).

The subject of data set [1] is isolated human heptocytes. As to conditions: literature (Jo et al. 2000); cited from earlier work.
Data set [2] concerns non-human hepatocytes. As to conditions: literature (Jo et al. 2000); cited from earlier work.
The test system of data set [3] is human tumors. The following applies: mice and nonhuman primates; literature (Walczak 1999; Ashkenazi 1999); cited from earlier work.
For data set [4], the system named is various tumor cell lines. As to conditions: literature (Walczak 1999; Wiley 1995; Pitti 1996); cited from earlier work.
For data set [5], the system named is nontransformed, normal cells. As to conditions: literature (Walczak 1999; Wiley 1995; Pitti 1996); cited from earlier work.
In data set [6] the test system is hepatocyte. As to conditions: literature (Lawrence et al. 2001); cited from earlier work.
The subject of data set [7] is U937 human tumor cells. Briefly: Cell Death Detection ELISA apoptosis assay, U937. It counts as cell-based. As to conditions: mammalian expressed TRAIL supernatants; commercial human TRAIL and Fas ligand 100 ng/ml (FIGS. 19B, 20B, 21B). The protocol: 4. Cell Death Detection ELISA Plus assay for apoptosis. The assay is based on a quantitative sandwich-enzyme-immunoassay-principle using mouse monoclonal antibodies directed against DNA and histones, respectively. This allows the specific determination of mono- and oligonucleosomes in the cytoplasmatic fraction of cell lysates. Roche kit, Cat. # 1 774 425, was used for this assay. 0.1 ml of U937 or any other types of cells (2×104 ) and 0.1 ml of tissue culture supernatant or other solutions containing apoptosis inducing agents (e.g. TRAIL) were used for this assay in 48-well plate. After 24 or 48 hrs of incubation at 3 7° C., the cells were spun at 2,000 rpm for 10 minutes. Cell pellet was then resuspended in 200 ul lysis buffer and incubated for 30 minutes at room temperature. The cell lysate was then centrifuged at 2,000 rpm for 10 minutes and diluted at 1:10 with incubation buffer. 20 ul of diluted lysate was added to coated plate (MTP from kit) and 80 ul of the immunoreagent was added to each well. MTP was then covered with adhesive cover foil and incubated under gentle shaking for 2 hours at room temperature. The solution was then removed thoroughly by tapping and subsequently rinsed 3 times with 250 ul incubation buffer. 100 ul ABTS solution was added and incubated on a plate shaker at 250 rpm for 15 minutes. Readings at 405 nm and 490 nm (background) were done on ELISA reader. […]

In data set [8] the test system is Normal dog hepatocytes. Kind of data set: Cell Death ELISA apoptosis assay, normal dog hepatocytes. Type of data set: cell-based. As to conditions: mammalian expressed TRAIL supernatants; Fas ligand 100 ng/ml (FIG. 21B). The method, then:
4. Cell Death Detection ELISA Plus assay for apoptosis. The assay is based on a quantitative sandwich-enzyme-immunoassay-principle using mouse monoclonal antibodies directed against DNA and histones, respectively. This allows the specific determination of mono- and oligonucleosomes in the cytoplasmatic fraction of cell lysates. Roche kit, Cat. # 1 774 425, was used for this assay. 0.1 ml of U937 or any other types of cells (2×104 ) and 0.1 ml of tissue culture supernatant or other solutions containing apoptosis inducing agents (e.g. TRAIL) were used for this assay in 48-well plate. After 24 or 48 hrs of incubation at 3 7° C., the cells were spun at 2,000 rpm for 10 minutes. Cell pellet was then resuspended in 200 ul lysis buffer and incubated for 30 minutes at room temperature. The cell lysate was then centrifuged at 2,000 rpm for 10 minutes and diluted at 1:10 with incubation buffer. 20 ul of diluted lysate was added to coated plate (MTP from kit) and 80 ul of the immunoreagent was added to each well. MTP was then covered with adhesive cover foil and incubated under gentle shaking for 2 hours at room temperature. The solution was then removed thoroughly by tapping and subsequently rinsed 3 times with 250 ul incubation buffer. 100 ul ABTS solution was added and incubated on a plate shaker at 250 rpm for 15 minutes. Readings at 405 nm and 490 nm (background) were done on ELISA reader.
3. […]
(In general: ELISA stands for enzyme-linked immunosorbent assay.)

With “polyhistidine-tagged recombinant human TRAIL (residues 114-281): polyhistidine-tagged recombinant human TRAIL (residues 114-281), Jo et al. 2000”, in data set [1], the “apoptosis in vitro in isolated human hepatocytes” value was “induce apoptosis”. The “apoptosis in vitro in non-human hepatocytes” value in data set [2] is reported as “not in non-human hepatocytes”.

For “TRAIL protein: TNF-related apoptosis-inducing ligand as reported in the literature”, in data set [3], the “apoptosis in human tumors after administration of TRAIL” value is given as “can induce apoptosis in human tumors” and the “cytotoxicity in normal organs or tissues” value was “no cytotoxicity”. The “apoptosis in various tumor cell lines” value in data set [4] is “induce apoptosis”. Further, in data set [5], the “apoptosis in nontransformed, normal cells” value is “not in nontransformed, normal cells”.

As to “native form of soluble TRAIL protein: native form of soluble TRAIL protein, Lawrence et al. 2001”, the “hepatocyte toxicity (apoptosis) of recombinant TRAIL versions” value in data set [6] is “no effect”.

As for “His-tagged TRAIL: His-tagged recombinant TRAIL version, Lawrence et al. 2001”, the “hepatocyte toxicity (apoptosis) of recombinant TRAIL versions” value in data set [6] is recorded as “induced substantial apoptosis”.

For “Fas ligand: Fas ligand (100 ng/ml, Upstate Biotechnology), control; well known agent which causes liver toxicity in vivo [reference compound]”, in data set [7], the “induction of apoptosis of U937 cells, in words” value is reported as “sensitive”. Further, the “apoptosis of normal dog hepatocytes, in words” value in data set [8] is “very sensitive”.
